Laboratory results from patent EP1106701A1.

What was measured:
[1] = target: standard human trypsin sample enclosed in the Kodazyme Trypsin M·EIA kit (human); test: Kodazyme Trypsin M·EIA sandwich EIA, standard human trypsin 400 ng/ml, duplicate
[2] = target: canine anionic trypsin (canine (dog)); test: Kodazyme Trypsin M·EIA sandwich EIA, canine anionic trypsin 100 ng/ml
[3] = target: canine anionic trypsin (canine (dog)); test: Kodazyme Trypsin M·EIA sandwich EIA, canine anionic trypsin 25 ng/ml
[4] = target: canine anionic trypsin (canine (dog)); test: Kodazyme Trypsin M·EIA sandwich EIA, canine anionic trypsin 6.25 ng/ml
[5] = target: canine cationic trypsin (canine (dog)); test: Kodazyme Trypsin M·EIA sandwich EIA, canine cationic trypsin 100 ng/ml, duplicate
[6] = target: canine cationic trypsin (canine (dog)); test: Kodazyme Trypsin M·EIA sandwich EIA, canine cationic trypsin 400 ng/ml, duplicate
[7] = target: canine anionic trypsin (canine (dog)); test: Kodazyme Trypsin M·EIA sandwich EIA, canine anionic trypsin 12.5 ng/ml
[8] = target: canine anionic trypsin (canine (dog)); test: Kodazyme Trypsin M·EIA sandwich EIA, canine anionic trypsin 50 ng/ml, duplicate
[9] = target: canine cationic trypsin (canine (dog)); test: Kodazyme Trypsin M·EIA sandwich EIA, canine cationic trypsin 12.5 ng/ml
[10] = target: canine cationic trypsin (canine (dog)); test: Kodazyme Trypsin M·EIA sandwich EIA, canine cationic trypsin 6.25 ng/ml
[11] = target: canine anionic trypsin (canine (dog)); test: Kodazyme Trypsin M·EIA sandwich EIA, canine anionic trypsin 50 ng/ml
[12] = target: canine anionic trypsin (canine (dog)); test: Kodazyme Trypsin M·EIA sandwich EIA, canine anionic trypsin 6.25 ng/ml, duplicate
[13] = target: canine anionic trypsin (canine (dog)); test: Kodazyme Trypsin M·EIA sandwich EIA, canine anionic trypsin 200 ng/ml
[14] = target: canine anionic trypsin (canine (dog)); test: Kodazyme Trypsin M·EIA sandwich EIA, canine anionic trypsin 100 ng/ml, duplicate
[15] = target: canine anionic trypsin (canine (dog)); test: Kodazyme Trypsin M·EIA sandwich EIA, canine anionic trypsin 12.5 ng/ml, duplicate
[16] = target: canine cationic trypsin (canine (dog)); test: Kodazyme Trypsin M·EIA sandwich EIA, canine cationic trypsin 200 ng/ml
[17] = target: canine cationic trypsin (canine (dog)); test: Kodazyme Trypsin M·EIA sandwich EIA, canine cationic trypsin 6.25 ng/ml, duplicate
[18] = target: canine cationic trypsin (canine (dog)); test: Kodazyme Trypsin M·EIA sandwich EIA, canine cationic trypsin 12.5 ng/ml, duplicate
[19] = target: canine cationic trypsin (canine (dog)); test: Kodazyme Trypsin M·EIA sandwich EIA, canine cationic trypsin 100 ng/ml
[20] = target: standard human trypsin sample enclosed in the Kodazyme Trypsin M·EIA kit (human); test: Kodazyme Trypsin M·EIA sandwich EIA, standard human trypsin 50 ng/ml
[21] = target: canine cationic trypsin (canine (dog)); test: Kodazyme Trypsin M·EIA sandwich EIA, canine cationic trypsin 400 ng/ml
[22] = target: canine cationic trypsin (canine (dog)); test: Kodazyme Trypsin M·EIA sandwich EIA, canine cationic trypsin 25 ng/ml, duplicate
[23] = target: canine cationic trypsin (canine (dog)); test: Kodazyme Trypsin M·EIA sandwich EIA, canine cationic trypsin 200 ng/ml, duplicate
[24] = target: canine cationic trypsin (canine (dog)); test: Kodazyme Trypsin M·EIA sandwich EIA, canine cationic trypsin 50 ng/ml, duplicate
[25] = target: canine anionic trypsin (canine (dog)); test: Kodazyme Trypsin M·EIA sandwich EIA, canine anionic trypsin 200 ng/ml, duplicate
[26] = target: canine cationic trypsin (canine (dog)); test: Kodazyme Trypsin M·EIA sandwich EIA, canine cationic trypsin 25 ng/ml
[27] = target: standard human trypsin sample enclosed in the Kodazyme Trypsin M·EIA kit (human); test: Kodazyme Trypsin M·EIA sandwich EIA, standard human trypsin 400 ng/ml
[28] = target: canine cationic trypsin (canine (dog)); test: Kodazyme Trypsin M·EIA sandwich EIA, canine cationic trypsin 50 ng/ml
[29] = target: standard human trypsin sample enclosed in the Kodazyme Trypsin M·EIA kit (human); test: Kodazyme Trypsin M·EIA sandwich EIA, standard human trypsin 600 ng/ml
[30] = target: standard human trypsin sample enclosed in the Kodazyme Trypsin M·EIA kit (human); test: Kodazyme Trypsin M·EIA sandwich EIA, standard human trypsin 10 ng/ml
[31] = target: canine anionic trypsin (canine (dog)); test: Kodazyme Trypsin M·EIA sandwich EIA, canine anionic trypsin 400 ng/ml
[32] = target: standard human trypsin sample enclosed in the Kodazyme Trypsin M·EIA kit (human); test: Kodazyme Trypsin M·EIA sandwich EIA, standard human trypsin 50 ng/ml, duplicate
[33] = target: standard human trypsin sample enclosed in the Kodazyme Trypsin M·EIA kit (human); test: Kodazyme Trypsin M·EIA sandwich EIA, standard human trypsin 10 ng/ml, duplicate
[34] = target: standard human trypsin sample enclosed in the Kodazyme Trypsin M·EIA kit (human); test: Kodazyme Trypsin M·EIA sandwich EIA, standard human trypsin 200 ng/ml, duplicate
[35] = target: standard human trypsin sample enclosed in the Kodazyme Trypsin M·EIA kit (human); test: Kodazyme Trypsin M·EIA sandwich EIA, standard human trypsin 100 ng/ml
[36] = target: standard human trypsin sample enclosed in the Kodazyme Trypsin M·EIA kit (human); test: Kodazyme Trypsin M·EIA sandwich EIA, standard human trypsin 200 ng/ml
[37] = target: canine anionic trypsin (canine (dog)); test: Kodazyme Trypsin M·EIA sandwich EIA, canine anionic trypsin 25 ng/ml, duplicate
[38] = target: canine anionic trypsin (canine (dog)); test: Kodazyme Trypsin M·EIA sandwich EIA, canine anionic trypsin 400 ng/ml, duplicate

human trypsin MAb of Kodazyme Trypsin M·EIA (antibody)
A492 [1]: 0.953
A492 [2]: 0.02
A492 [3]: 0.023
A492 [4]: 0.023
A492 [5]: 0.019
A492 [6]: 0.019
A492 [7]: 0.02
A492 [8]: 0.02
A492 [9]: 0.021
A492 [10]: 0.048
A492 [11]: 0.021
A492 [12]: 0.023
A492 [13]: 0.023
A492 [14]: 0.022
A492 [15]: 0.024
A492 [16]: 0.017
A492 [17]: 0.019
A492 [18]: 0.019
A492 [19]: 0.029
A492 [20]: 0.224
A492 [21]: 0.021
A492 [22]: 0.018
A492 [23]: 0.015
A492 [24]: 0.017
A492 [25]: 0.019
A492 [26]: 0.023
A492 [27]: 1.15
A492 [28]: 0.017
A492 [29]: 1.58
A492 [30]: 0.065
A492 [31]: 0.032
A492 [32]: 0.202
A492 [33]: 0.131
A492 [34]: 0.697
A492 [35]: 0.399
A492 [36]: 0.538
A492 [37]: 0.021
A492 [38]: 0.038
